Consider 15 molecules from patent US20260250410A1 (SICHUAN HUIYU PHARMACEUTICAL, published 2026).

To fix the notation:
T1: MsCDCP1 (mouse, UniProt Q5U462 30-666)
T1 construct: extracellular domain; also called mouse CDCP1; not shown: Fc or his tag
T1 sequence (looked up): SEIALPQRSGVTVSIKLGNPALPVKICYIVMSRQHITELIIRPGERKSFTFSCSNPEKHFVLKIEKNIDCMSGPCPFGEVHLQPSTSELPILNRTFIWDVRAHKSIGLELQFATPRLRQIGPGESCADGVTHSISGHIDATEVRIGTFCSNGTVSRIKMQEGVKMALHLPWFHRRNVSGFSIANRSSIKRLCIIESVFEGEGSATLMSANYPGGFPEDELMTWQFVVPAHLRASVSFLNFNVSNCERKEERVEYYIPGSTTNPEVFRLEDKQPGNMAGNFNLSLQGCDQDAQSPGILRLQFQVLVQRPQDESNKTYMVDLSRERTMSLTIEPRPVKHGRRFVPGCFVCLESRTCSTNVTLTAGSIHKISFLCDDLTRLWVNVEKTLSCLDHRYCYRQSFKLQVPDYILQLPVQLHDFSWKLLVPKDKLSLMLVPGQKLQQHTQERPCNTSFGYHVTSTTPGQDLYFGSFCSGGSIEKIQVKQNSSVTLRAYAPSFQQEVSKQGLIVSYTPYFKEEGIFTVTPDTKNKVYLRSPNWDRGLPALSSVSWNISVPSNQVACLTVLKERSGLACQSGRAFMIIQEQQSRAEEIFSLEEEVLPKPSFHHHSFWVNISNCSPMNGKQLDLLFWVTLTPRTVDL

T2: HuCDCP1-C (human, UniProt Q9H5V8 30-667)
T2 construct: range 30-667; expressed in HEK-293T, purified by Fc/his tag; also called human CDCP1-C; full-length extracellular domain of human CDCP1; not shown: Fc or his tag
T2 sequence (looked up): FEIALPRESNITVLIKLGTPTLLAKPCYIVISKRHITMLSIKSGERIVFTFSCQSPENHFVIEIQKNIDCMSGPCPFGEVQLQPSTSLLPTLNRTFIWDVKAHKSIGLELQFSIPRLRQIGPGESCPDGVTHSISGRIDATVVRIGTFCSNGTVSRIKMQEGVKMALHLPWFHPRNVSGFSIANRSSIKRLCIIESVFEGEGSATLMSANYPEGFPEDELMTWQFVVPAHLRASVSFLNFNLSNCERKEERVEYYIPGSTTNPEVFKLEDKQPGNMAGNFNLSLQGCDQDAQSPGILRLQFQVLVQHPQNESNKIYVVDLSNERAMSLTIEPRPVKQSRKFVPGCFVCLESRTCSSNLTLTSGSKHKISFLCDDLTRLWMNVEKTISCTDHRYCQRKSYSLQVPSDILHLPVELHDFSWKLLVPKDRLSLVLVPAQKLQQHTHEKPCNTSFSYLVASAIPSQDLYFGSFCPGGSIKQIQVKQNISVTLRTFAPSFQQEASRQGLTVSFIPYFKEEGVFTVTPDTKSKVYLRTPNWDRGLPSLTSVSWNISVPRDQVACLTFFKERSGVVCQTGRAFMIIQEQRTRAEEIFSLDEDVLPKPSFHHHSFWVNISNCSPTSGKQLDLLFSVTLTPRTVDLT

B1: 5B8 (antibody, V domains shown)
VH: EVQLKESGGGLVQPGGSLRISCATSGLTFTHYHMSWVRQPPGKAPEWLAIIRNKAYGYTTDYSASVRGRFTISRDDSQSILYLQMNTLRAEDSATYYCVREGGYGYDGTFAYWGQGTTVTVSS
VL: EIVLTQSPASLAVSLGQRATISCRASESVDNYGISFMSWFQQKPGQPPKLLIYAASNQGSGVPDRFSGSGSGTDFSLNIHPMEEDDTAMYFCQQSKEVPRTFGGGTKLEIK
notes: murine hybridoma mAb
B2: 8C9 (antibody, V domains shown)
VH: EVQLKESGGGLVQPGGSLRISCATSGLTFTHYHMSWVRQPPGKAPEWLAIIRNKAYGYTTDYSASVRGRFTISRDDSQSILYLQMNTLRPEDSATYYCVREGGYGYDGTFAYWGQGTTVTVSS
VL: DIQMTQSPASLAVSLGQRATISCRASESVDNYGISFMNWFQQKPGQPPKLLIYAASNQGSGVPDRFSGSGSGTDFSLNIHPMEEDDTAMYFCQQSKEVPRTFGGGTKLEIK
notes: murine hybridoma mAb
B3: 3F1A11 (antibody, V domains shown)
VH: EVKLVESGPGLVKPSQSLSLTCTVTGYSITSDYAWNWIRQFPGNKLEWMGYISYNTYTSYNPSLKSRISVTRDTSKNQFFLQLKSVTIEDTATYFCAGGDYYGTGAVDYWGQGTTVTVSS
VL: EIVLTQSPLSLPVSLGDQASISCRSRQTLVHTNGNTYLDWYLQKPGQSPKLLIYKVSIRFSGVPDRFSGSRSGTDFTLKISRVEAEDLGIYYCFQGSHVPWTFGGGTKLEIK
notes: murine hybridoma mAb
B4: 6A7 (antibody, V domains shown)
VH: EVQLKESGAELVRPGASVKVSCKASGYSFTSYWMNWVKQRPGQGLEWIGMIHPSDSETKLNQKFRDRASLTVDKSSSTAYMQLSSPTSEDSAVYYCTINYESFYYAMDYWGQGTTVTVSS
VL: DIVMTQSPASLAVSLGQRATISCRASKSVSTSGYSYMHWYQQKPGQPPKLLLYLASNLESGVPARFSGSGSGADFTLNIHPVEEEDAATYYCLHSRELPYTFGGGTKLEIK
notes: murine hybridoma mAb
B5: G10F6 (antibody, V domains shown)
VH: EVKLVESGPGILQPSQTLSLTCSFSGFSLSTSGMGVSWVRQPSGKGLEWLAHIYWDDDKRYNPSLKGRLTISKDTPRNQVFLEITSVDTTDTATYYCARVPGNWDEDAMDYWGQGTTVTVSS
VL: DIQMTQSPLSLPVSLGDQASISCRSSQNIVHTNGNTYLEWYLQKVGQSPKLLIYKVSNRFSGVPDRFSGSGSGTDFTLKISRVEAEDLGVYYCFQGSHVPYTFGGGTKLEIK
notes: murine hybridoma mAb
B6: 3B12H5 (antibody, V domains shown)
VH: EVQLQQSGTVLARPGASVKMSCKASGYSFTIYWVHWVKQRPGQGLEWIGAVYPGNDDTSYNQNFKGKAKLTAVTSATTAYMELSSLTIDDSAVYYCTRHTYDEVFDYWGQGTTVTVSS
VL: DIVMTQSPSSLSVSLGDRVTITCKASEDIYYRLAWYQQKPGNAPRLLISGGTNLEAGIPSRFSGSGSGKDYTLSITSLQTEDVAIYYCQHYWNTPWTFGGGTKLEIK
notes: murine hybridoma mAb; also called 3B12HS
B7: 8E5 (antibody, V domains shown)
VH: EVQLKESGPELKKPGETVKISCKASGYTLTDFSMHWLKQAPGKGLKWMGWINTETGAPTYADDFKGRFALSLDTSANTAYLQINNLKNEDTATYFCSRGRDYDPHFDYWGQGTTVTVSS
VL: EIVLTQSPATLSVTPGDRVSLSCRASQSISDFLHWYQQRSHESPRLLIKYASQSISGIPSRFGGSGSGSDFTLNINTVEPEDVGMYYCQSAHSFPYTFGGGTKLEIK
notes: murine hybridoma mAb; also called 8ES
B8: 1CP-152 (antibody, human IgG1, kappa, V domains shown)
VH: EVQLVESGGGLVQPGRSLRLSCTTSGLTFTHYHMSWVRQAPGKGLEWVAIIRNKAYGYTTDYSASVRGRFTISRDDSKSILYLQMNSLKTEDTAVYYCVREGGYGYDGTFAYWGQGTLVTVSS
VL: DIQMTQSPSSLSASVGDRVTITCRASESVDNYGISFMNWFQQKPGQAPKLLIYAASNQGSGVPSRFSGSGSGTDFTLTISSMQPEDFATYYCQQSKEVPRTFGGGTKVEIKR
notes: humanized 8C9, human IgG1 kappa
B9: 1CP-157 (antibody, human IgG1, kappa, V domains shown)
VH: EVQLVESGGGLVQPGRSLRLSCTTSGLTFTHYHMSWVRQAPGKGPEWVAIIRNKAYGYTTDYSASVRGRFTISRDDSKSILYLQMNSLKTEDTAVYYCVREGGYGYDGTFAYWGQGTLVTVSS
VL: DIQMTQSPSSLSASVGDRVTITCRASESVDNYGISFMNWFQQKPGQPPKLLIYAASNQGSGVPSRFSGSGSGTDFTLTISSMQPEDFATYYCQQSKEVPRTFGGGTKVEIKR
notes: as for B8
B10: 1CP-117 (antibody, human IgG1, kappa, V domains shown)
VH: QVQLVQSGSELKKPGASVKVSCKASGYTLTDFSMHWVRQAPGQGLEWMGWINTETGAPTYADDFKGRFVLSLDTSVSTAYLQISSLKAEDTAVYYCSRGRDYDPHFDYWGQGTLVTVSS
VL: EIVLTQSPATLSLSPGERATLSCRASQSISDFLHWYQQKPGQSPRLLIKYASQSISGIPARFSGSGSGSDFTLTISSVEPEDFAVYYCQSAHSFPYTFGQGTKLEIKR
notes: humanized 8E5, human IgG1 kappa
B11: 1CP-121 (antibody, human IgG1, kappa, V domains shown)
VH: QVQLVQSGSELKKPGASVKVSCKASGYTLTDFSMHWVRQAPGQGLEWMGWINTETGAPTYADDFKGRFVLSLDTSVSTAYLQISSLKAEDTAVYYCSRGRDYDPHFDYWGQGTLVTVSS
VL: EIVLTQSPATLSLSPGERATLSCRASQSISDFLHWYQQKSGQSPRLLIKYASQSISGIPARFSGSGSGSDFTLTISSVEPEDFAVYYCQSAHSFPYTFGQGTKLEIKR
notes: as for B10
B12: 1CP-124 (antibody, human IgG1, kappa, V domains shown)
VH: QVQLVQSGAEVKKPGASVKVSCKASGYNFISYWLHWVRQAPGQGLEWMGGIYPGNTDTTYNQKFKGRVTMTRDTSTSTVYMELSSLRSEDTAVYYCIRYDYDRGMDYWGQGTLVTVSS
VL: DIQMTQSPSSLSASVGDRVTITCRASEDIYYRLAWYQQKPGKAPKLLISGATALETGVPSRFSGSGSGKDYTFTISSLQPEDIATYYCQHYWNIPWTFGQGTKVEIKR
notes: humanized 3C11, human IgG1 kappa
B13: 1CP-129 (antibody, human IgG1, kappa, V domains shown)
VH: QVQLVQSGAEVKKPGASVKVSCKASGYNFISYWLHWVRQAPGQGLEWMGGIYPGNTDTTYNQKFKGRVTMTADTSTSTVYMELSSLRSEDTAVYYCIRYDYDRGMDYWGQGTLVTVSS
VL: DIQMTQSPSSLSASVGDRVTITCRASEDIYYRLAWYQQKPGKAPKLLISGATALETGVPSRFSGSGSGKDYTLTISSLQPEDIATYYCQHYWNIPWTFGQGTKVEIKR
notes: as for B12
B14: 1CP-125 (antibody, human IgG1, kappa, V domains shown)
VH: QVQLVQSGAEVKKPGASVKVSCKASGYNFISYWLHWVRQAPGQGLEWMGGIYPGNTDTTYNQKFKGRVTMTADTSTSTVYMELSSLRSEDTAVYYCIRYDYDRGMDYWGQGTLVTVSS
VL: DIQMTQSPSSLSASVGDRVTITCRASEDIYYRLAWYQQKPGKAPKLLISGATALETGVPSRFSGSGSGKDYTFTISSLQPEDIATYYCQHYWNIPWTFGQGTKVEIKR
notes: as for B12
B15: 1CP-128 (antibody, human IgG1, kappa, V domains shown)
VH: QVQLVQSGAEVKKPGASVKVSCKASGYNFISYWLHWVRQAPGQGLEWMGGIYPGNTDTTYNQKFKGRVTMTRDTSTSTVYMELSSLRSEDTAVYYCIRYDYDRGMDYWGQGTLVTVSS
VL: DIQMTQSPSSLSASVGDRVTITCRASEDIYYRLAWYQQKPGKAPKLLISGATALETGVPSRFSGSGSGKDYTLTISSLQPEDIATYYCQHYWNIPWTFGQGTKVEIKR
notes: as for B12

The target in the first test is T1, MsCDCP1. Briefly: SPR (Caterra or Biacore), antigen immobilized.
Turning to B1, the binding result is “no binding (tested: 150 nM highest concentration)”.

For the molecule B2, the binding result is on record as “no binding (tested: 150 nM highest concentration)”.

For the molecule B3, the binding result is “no binding (tested: 150 nM highest concentration)”.

Regarding B4, the EC50 worked out at 27500 pM.

B5: the binding result was “no binding (tested: 150 nM highest concentration)”.

Turning to B6, the binding result is listed as “no binding (tested: 150 nM highest concentration)”.

For B7, the binding result is on record as “no binding (tested: 150 nM highest concentration)”.

In a further test the target is T2, HuCDCP1-C. The test can be described thus: SPR (Caterra), antigen immobilized. The method, then:
The humanized anti-CDCP1 antibodies obtained from Example 11 were subjected to gene cloning, constructed into pTT5 expression vector for a small amount of expression in CHO cells (Expi-CHOS: Gibco A29127), and purified with an Fc affinity column (AT Protein A Diamond Plus. No. AA402312). Antibody purity was analyzed by HPLC and determined by Nanodrop. High-throughput affinity assay was carried out for a small amount of antibodies by Caterra.
Molecule B8 registered a Kd of 4090 pM, a koff of 0.000465 s⁻¹ and a kon of 114000 M⁻¹ s⁻¹.

For the molecule B9, binding was put at a Kd of 3140 pM, the koff amounted to 0.000385 s⁻¹ and the kon came out at 122000 M⁻¹ s⁻¹.

On to B10, for which the Kd came to 259 pM, the koff amounted to 3.93e-05 s⁻¹ and the kon worked out at 152000 M⁻¹ s⁻¹.

Molecule B11 gave a Kd of at most 67.5 pM, a koff of at most 1e-05 s⁻¹ and a kon of 148000 M⁻¹ s⁻¹.

Regarding B12, binding was put at a Kd of 99.3 pM, the koff is 1.47e-05 s⁻¹ and the kon was 148000 M⁻¹ s⁻¹.

As for B13, the Kd was at most 62.3 pM, the koff is at most 1e-05 s⁻¹ and the kon amounted to 160000 M⁻¹ s⁻¹.

As to B14, the Kd came out at 144 pM, the koff amounted to 2.17e-05 s⁻¹ and the kon is 151000 M⁻¹ s⁻¹.

B15 showed a Kd of at most 71.7 pM, a koff of at most 1e-05 s⁻¹ and a kon of 139000 M⁻¹ s⁻¹.

Usually EC50 stands for the concentration at which the effect is half-maximal. A higher EC50 goes with lower potency in that assay. The term Kd denotes the concentration at which binding is half-saturated. High values mean weaker binding, low ones tighter binding. For orientation: koff means the first-order rate constant of dissociation. Low readings indicate a long-lived complex, high ones a short-lived complex. By kon is commonly meant the second-order rate constant of association. A low value points to slower complex formation.
